Data reported in paper PMC6699925.

Biological target: phospholamban (PLN), mouse (mouse (endogenous in mouse heart)) (UniProt P61014)
Assay: co-IP

Sequence of UniProt P61014 (P61014 whole entry): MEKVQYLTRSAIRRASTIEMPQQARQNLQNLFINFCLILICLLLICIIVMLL

reduction of PP1c bound to PLN in Ppp1r3a-KO against WT hearts: 58%
Substance: protein phosphatase 1 catalytic subunit (PP1c), mouse (from UniProt P62137 1-330) (enzyme)
